The values below come from paper PMC13083859.

The test concerns the target human muscarinic M3 receptor with C-terminal mCitrine (M3-mCit), wild type (human) (UniProt P20309). In words: FRET or BRET; single-cell FRET between receptor-mCitrine and mTurq-Gγ2 of the co-expressed heterotrimer (Gαo or Gαq, Gβ1, Gγ2) in HEK293T cells permeabilized with 0.05% saponin for 2 min (GTP depletion), PTX-A co-expressed; room temperature; internal buffer pH 7.35; complex induced by 10 µM acetylcholine, its stability after wash-out quantified as area under the curve (AUC); complete dissociation by 1 µM GTPγS. A general note: BRET reads energy transfer from a luciferase to a nearby fluorophore.
UniProt P20309, sequence (P20309 whole entry): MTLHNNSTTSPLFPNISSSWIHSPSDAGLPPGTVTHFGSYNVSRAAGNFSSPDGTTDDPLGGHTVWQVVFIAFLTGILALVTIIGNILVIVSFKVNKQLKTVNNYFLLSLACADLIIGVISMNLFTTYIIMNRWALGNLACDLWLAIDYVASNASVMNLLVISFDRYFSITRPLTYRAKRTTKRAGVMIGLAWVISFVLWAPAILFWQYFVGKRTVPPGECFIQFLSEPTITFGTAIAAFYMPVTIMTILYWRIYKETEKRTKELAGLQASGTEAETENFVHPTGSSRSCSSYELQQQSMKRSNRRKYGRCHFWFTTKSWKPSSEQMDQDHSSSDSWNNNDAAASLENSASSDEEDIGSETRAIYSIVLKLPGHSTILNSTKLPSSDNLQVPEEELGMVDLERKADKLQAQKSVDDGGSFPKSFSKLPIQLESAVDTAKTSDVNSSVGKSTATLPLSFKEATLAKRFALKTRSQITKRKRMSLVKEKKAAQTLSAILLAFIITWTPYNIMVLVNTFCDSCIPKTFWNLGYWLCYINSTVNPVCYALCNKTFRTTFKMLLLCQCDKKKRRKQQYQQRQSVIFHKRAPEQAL

With “Gq heterotrimer: Gαq, Gβ1-wt and mTurq-Gγ2 (from UniProt P50148 1-359; P62873 1-340; P59768 1-71) (complex; other documents disagree on this pair)”, the AUC (area under the FRET curve after agonist wash-out) stood at 106 a.u.

Turning to “Go heterotrimer: PTX-insensitive Gαo, Gβ1-wt and mTurq-Gγ2 (from UniProt P09471 1-354; P62873 1-340; P59768 1-71) (complex)”, the AUC (area under the FRET curve after agonist wash-out) was 30 a.u.
